{"source": "patent US20190041402A1", "about": "(GOVERNING COUNCIL OF THE UNIVERSITY OF TORONTO, published 2019)", "binders": {"B1": {"name": "sb106 IgG (antibody, V domains shown)", "VH": "EVQLVESGGGLVQPGGSLRLSCAASGFNISYYSIHWVRQAPGKGLEWVAYISPSYGYTSYADSVKGRFTISADTSKNTAYLQMNSLRAEDTAVYYCARYYVYASHGWAGYGMDYWGQGTLVTVSS", "VL": "DIQMTQSPSSLSASVGDRVTITCRASQSVSSAVAWYQQKPGKAPKLLIYSASSLYSGVPSRFSGSRSGTDFTLTISSLQPEDFATYYCQQAGYSPITFGQGTKVEIKR", "notes": "also called sb106 (48) full length IgG"}, "B2": {"name": "anti-αKlotho Fab clone 4811 (Fab, V domains shown)", "VH": "EVQLVESGGGLVQPGGSLRLSCAASGFNLYYSYMHWVRQAPGKGLEWVASIYSSSSYTSYADSVKGRFTISADTSKNTAYLQMNSLRAEDTAVYYCARSPSWWVSYHSALDYWGQGTLVTVSS", "VL": "DIQMTQSPSSLSASVGDRVTITCRASQSVSSAVAWYQQKPGKAPKLLIYSASSLYSGVPSRFSGSRSGTDFTLTISSLQPEDFATYYCQQGYALFTFGQGTKVEIKR", "notes": "Fab (also as Fab-phage); FLAG tag on light chain; also called sb180"}}, "key": {"rat αKlotho (endogenous)": {"biological_target": "T1, rat αKlotho (endogenous) (rat, UniProt Q9Z2Y9 35-983)", "T1 sequence (looked up)": "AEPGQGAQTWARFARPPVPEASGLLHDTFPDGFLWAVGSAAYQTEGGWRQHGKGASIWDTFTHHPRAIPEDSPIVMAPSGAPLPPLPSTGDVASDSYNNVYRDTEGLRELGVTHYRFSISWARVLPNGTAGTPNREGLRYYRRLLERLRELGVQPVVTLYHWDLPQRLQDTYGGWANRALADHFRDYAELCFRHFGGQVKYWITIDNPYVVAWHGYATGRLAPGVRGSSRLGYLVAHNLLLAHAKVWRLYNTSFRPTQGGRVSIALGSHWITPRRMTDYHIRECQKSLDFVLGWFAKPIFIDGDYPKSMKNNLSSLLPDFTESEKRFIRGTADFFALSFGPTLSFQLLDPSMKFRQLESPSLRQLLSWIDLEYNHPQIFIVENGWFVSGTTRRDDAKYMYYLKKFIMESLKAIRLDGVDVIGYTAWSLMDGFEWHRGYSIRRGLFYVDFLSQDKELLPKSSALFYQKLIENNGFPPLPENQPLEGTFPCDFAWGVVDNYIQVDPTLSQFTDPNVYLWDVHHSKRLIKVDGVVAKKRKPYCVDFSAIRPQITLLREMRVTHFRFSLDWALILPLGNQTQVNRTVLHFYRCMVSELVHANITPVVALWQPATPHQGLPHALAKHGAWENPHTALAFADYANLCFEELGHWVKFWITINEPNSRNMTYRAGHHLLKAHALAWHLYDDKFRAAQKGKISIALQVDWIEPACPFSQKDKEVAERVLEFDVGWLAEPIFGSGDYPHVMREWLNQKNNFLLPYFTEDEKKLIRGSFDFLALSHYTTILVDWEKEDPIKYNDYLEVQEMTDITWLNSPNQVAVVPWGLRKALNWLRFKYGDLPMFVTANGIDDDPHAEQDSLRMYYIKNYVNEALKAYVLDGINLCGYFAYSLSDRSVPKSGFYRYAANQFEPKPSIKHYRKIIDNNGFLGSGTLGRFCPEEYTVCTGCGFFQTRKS", "assay": "immunohistochemistry, unfixed frozen rat parathyroid tissue", "protocol": "For labeling, sections were blocked (PBS, 1.5% BSA, 10% goat serum; 40 min) and incubated with the primary antibody sb106 ([…] in blocking solution; 4° C. overnight). After washing (PBS), sections were incubated with the Alexa 546 goat anti-human IgG (1:800 dilution, Invitrogen) for 1 hour at room temperature. After additional washes with PBS, the sections were fixed with 4% paraformaldehyde in PBS, washed with PBS, and mounted and visualized with a Zeiss LSM510 microscope.\nSb106 was highly reactive against αKlotho under native conditions. Immunoblot signals under denaturing conditions against mouse, rat, and human kidney tissue were weak, but in samples from transgenic mice overexpressing αKlotho [79], sb106-Fab detected a band corresponding to the full-length extracellular domain of αKlotho (FIG. 2A). In cultured cells, sb106-Fab was not able to detect αKlotho in immunoblots under denaturing conditions with lysates from NRK cells expressing native αKlotho but it was able to detect overexpressed antigen in cell lysates from HEK293 cells transfected with αKlotho (FIG. 2B). […] Cells were then incubated with sb106-Fab (5 μg/ml in 1% BSA in PBS) for 1 hr. […]"}, "mouse αKlotho [1]": {"biological_target": "T2, mouse αKlotho (mouse, UniProt O35082 35-982)", "T2 construct": "also called Mu aKL", "T2 sequence (looked up)": "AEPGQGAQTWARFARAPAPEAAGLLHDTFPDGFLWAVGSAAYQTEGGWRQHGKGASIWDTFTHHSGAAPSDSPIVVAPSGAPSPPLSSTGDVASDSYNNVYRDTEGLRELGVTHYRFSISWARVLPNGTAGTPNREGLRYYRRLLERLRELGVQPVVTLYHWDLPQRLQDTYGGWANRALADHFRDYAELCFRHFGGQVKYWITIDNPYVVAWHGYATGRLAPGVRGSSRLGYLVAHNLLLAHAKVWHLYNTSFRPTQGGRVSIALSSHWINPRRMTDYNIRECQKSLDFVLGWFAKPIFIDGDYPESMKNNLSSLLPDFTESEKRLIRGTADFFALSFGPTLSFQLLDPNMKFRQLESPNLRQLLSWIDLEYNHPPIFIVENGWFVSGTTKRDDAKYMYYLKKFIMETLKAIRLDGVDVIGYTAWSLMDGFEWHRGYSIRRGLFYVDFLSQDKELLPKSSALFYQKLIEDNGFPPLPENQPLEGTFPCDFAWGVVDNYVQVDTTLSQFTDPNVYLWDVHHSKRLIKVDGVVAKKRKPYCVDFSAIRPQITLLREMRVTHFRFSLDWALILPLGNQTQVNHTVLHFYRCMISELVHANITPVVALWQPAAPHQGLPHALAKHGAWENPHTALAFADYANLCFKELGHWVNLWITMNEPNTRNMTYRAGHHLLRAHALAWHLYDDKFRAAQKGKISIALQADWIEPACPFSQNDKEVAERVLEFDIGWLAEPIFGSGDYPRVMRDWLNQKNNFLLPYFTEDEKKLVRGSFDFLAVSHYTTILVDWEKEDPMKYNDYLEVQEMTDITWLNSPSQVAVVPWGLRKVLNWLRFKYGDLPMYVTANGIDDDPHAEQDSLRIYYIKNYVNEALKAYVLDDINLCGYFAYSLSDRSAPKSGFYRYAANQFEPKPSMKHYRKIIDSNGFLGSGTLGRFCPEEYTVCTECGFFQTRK", "assay": "SPR (ProteOn XPR36), Fab captured by anti-IgG(H+L), mouse αKlotho injected in serial dilutions, Langmuir fit", "protocol": "(§1) Estimated affinities against human and mouse antigen for select αKlotho Fabs were obtained by surface plasmon resonance on a ProteOn XPR36 (FIG. 17). Fabs were captured using an anti-IgG(H+L) antibody and serial dilutions of αKlotho were injected. Binding curves were fitted to the Langmuir model. (A) Determined Kon, Koff and KD values. (B) and (C) Binding curves for human and mouse antigen respectively."}, "[2]": {"biological_target": "T3, soluble human αKlotho (recombinant) (human, UniProt Q9UEF7 34-981)", "T3 construct": "also called Hu aKL; recombinant human αKlotho", "T3 sequence (looked up)": "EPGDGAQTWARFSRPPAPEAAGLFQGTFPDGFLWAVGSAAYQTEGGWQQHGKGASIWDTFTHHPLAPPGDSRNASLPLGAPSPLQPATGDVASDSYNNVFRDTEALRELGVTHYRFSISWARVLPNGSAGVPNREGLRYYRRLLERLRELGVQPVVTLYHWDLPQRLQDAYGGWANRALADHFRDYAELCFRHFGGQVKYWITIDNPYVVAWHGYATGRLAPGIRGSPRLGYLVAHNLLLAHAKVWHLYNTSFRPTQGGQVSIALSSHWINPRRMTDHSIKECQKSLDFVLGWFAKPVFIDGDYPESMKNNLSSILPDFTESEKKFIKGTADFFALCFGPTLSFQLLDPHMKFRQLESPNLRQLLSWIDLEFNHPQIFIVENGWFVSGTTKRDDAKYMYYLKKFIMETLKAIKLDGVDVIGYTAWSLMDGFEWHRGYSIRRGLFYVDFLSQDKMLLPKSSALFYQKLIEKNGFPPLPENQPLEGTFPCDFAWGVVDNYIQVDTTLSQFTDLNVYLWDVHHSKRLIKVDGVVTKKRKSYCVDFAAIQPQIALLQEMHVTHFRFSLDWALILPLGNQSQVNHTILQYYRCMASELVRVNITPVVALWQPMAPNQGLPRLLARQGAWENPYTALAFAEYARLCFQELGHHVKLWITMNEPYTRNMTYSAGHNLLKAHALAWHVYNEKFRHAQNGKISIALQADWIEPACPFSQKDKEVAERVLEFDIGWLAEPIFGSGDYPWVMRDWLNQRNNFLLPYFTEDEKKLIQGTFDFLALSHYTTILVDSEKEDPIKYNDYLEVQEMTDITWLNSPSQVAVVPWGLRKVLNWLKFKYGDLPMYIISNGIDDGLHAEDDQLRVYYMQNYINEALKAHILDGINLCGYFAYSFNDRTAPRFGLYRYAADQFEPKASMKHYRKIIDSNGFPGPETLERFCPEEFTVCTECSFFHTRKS", "assay": "SPR (ProteOn XPR36), Fab captured by anti-IgG(H+L), human αKlotho injected in serial dilutions, Langmuir fit", "protocol": "as §1"}, "[3]": {"biological_target": "T4, extracellular domain (ECD) of human αKlotho, amino acids E34-S981 with C-terminal 6-His tag (R&D Systems … (human, UniProt Q9UEF7 34-981))", "T4 construct": "range 34-981; also called αKlotho (aa34-981); target antigen", "T4 sequence": "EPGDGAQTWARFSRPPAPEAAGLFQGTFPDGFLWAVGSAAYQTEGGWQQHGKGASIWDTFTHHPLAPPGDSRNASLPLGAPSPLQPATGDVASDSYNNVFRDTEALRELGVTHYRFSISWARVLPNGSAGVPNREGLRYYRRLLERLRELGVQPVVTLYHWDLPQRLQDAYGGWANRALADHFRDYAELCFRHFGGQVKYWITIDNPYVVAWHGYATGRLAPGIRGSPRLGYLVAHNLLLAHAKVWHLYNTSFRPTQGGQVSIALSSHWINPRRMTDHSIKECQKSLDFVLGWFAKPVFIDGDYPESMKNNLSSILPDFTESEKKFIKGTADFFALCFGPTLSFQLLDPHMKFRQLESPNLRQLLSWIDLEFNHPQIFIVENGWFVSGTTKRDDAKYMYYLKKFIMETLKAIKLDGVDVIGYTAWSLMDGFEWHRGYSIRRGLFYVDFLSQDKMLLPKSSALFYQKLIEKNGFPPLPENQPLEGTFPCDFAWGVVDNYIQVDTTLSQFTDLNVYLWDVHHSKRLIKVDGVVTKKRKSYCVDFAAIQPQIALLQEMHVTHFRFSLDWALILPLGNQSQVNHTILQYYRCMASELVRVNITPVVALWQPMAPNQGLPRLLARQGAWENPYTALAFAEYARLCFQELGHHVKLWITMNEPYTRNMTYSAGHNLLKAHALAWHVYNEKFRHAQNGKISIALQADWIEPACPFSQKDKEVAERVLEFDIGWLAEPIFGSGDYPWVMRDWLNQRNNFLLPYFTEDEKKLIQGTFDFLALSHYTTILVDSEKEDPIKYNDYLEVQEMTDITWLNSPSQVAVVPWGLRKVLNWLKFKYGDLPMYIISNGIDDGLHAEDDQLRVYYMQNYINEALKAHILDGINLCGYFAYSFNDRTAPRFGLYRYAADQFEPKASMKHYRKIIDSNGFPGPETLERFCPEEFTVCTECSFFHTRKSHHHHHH", "assay": "SPR, Fab captured by anti-H+L IgG, αKlotho injected at 50 to 6.25 ug/ml, Langmuir fit [continued]", "protocol": "(§2) Affinity estimates for each of the antibodies were determined by surface plasmon resonance (SPR). Fabs were immobilized using an anti-H+L antibody and serial dilutions of αKlotho were injected."}, "[4]": {"biological_target": "T4, extracellular domain (ECD) of human …", "assay": "SPR, Fab captured by anti-H+L antibody, αKlotho injected", "protocol": "as §2"}, "mouse αKlotho [5]": {"biological_target": "T2, mouse αKlotho", "assay": "SPR (ProteOn XPR36), Fab captured by anti-IgG(H+L), mouse αKlotho injected in serial dilutions, Langmuir fit [continued) C.]", "protocol": "as §1"}, "[6]": {"biological_target": "T3, soluble human αKlotho (recombinant)", "assay": "SPR (ProteOn XPR36), Fab captured by anti-IgG(H+L), human αKlotho injected in serial dilutions, Langmuir fit [continued) B.]", "protocol": "as §1"}}, "data": [{"binder": "B1", "values": [{"measurement": "binding result", "setting": "rat αKlotho (endogenous)", "value": "binds"}]}, {"binder": "B2", "values": [{"measurement": "Kd", "setting": "mouse αKlotho [1]", "value": 19.9, "unit": "nM"}, {"measurement": "koff", "setting": "mouse αKlotho [1]", "value": 0.00545, "unit": "s⁻¹"}, {"measurement": "kon", "setting": "mouse αKlotho [1]", "value": 273000, "unit": "M⁻¹ s⁻¹"}, {"measurement": "Kd", "setting": "[2]", "value": 1.48, "unit": "nM"}, {"measurement": "koff", "setting": "[2]", "value": 0.000516, "unit": "s⁻¹"}, {"measurement": "kon", "setting": "[2]", "value": 349000, "unit": "M⁻¹ s⁻¹"}, {"measurement": "Kd", "setting": "[3]", "value": 1.13, "unit": "nM"}, {"measurement": "koff", "setting": "[3]", "value": 0.000609, "unit": "s⁻¹"}, {"measurement": "kon", "setting": "[3]", "value": 537000, "unit": "M⁻¹ s⁻¹"}, {"measurement": "Kd", "setting": "[4]", "value": 2.3, "unit": "nM"}, {"measurement": "Kd", "setting": "mouse αKlotho [5]", "value": 10.3, "unit": "nM"}, {"measurement": "koff", "setting": "mouse αKlotho [5]", "value": 0.00276, "unit": "s⁻¹"}, {"measurement": "kon", "setting": "mouse αKlotho [5]", "value": 268000, "unit": "M⁻¹ s⁻¹"}, {"measurement": "Kd", "setting": "[6]", "value": 1.48, "unit": "nM"}, {"measurement": "koff", "setting": "[6]", "value": 0.000516, "unit": "s⁻¹"}, {"measurement": "kon", "setting": "[6]", "value": 349000, "unit": "M⁻¹ s⁻¹"}]}]}
